Results reported in patent publication US20070089183A1, “Size and/or growth engineering by modulation of the interaction between calmodulin, and brassinosteroid biosynthetic enzymes and orthologs therof” (Washington State University, priority 2005, published 2007).

Legend:
35S-CaM = assay: 35S-CaM-binding assay; settings: purified recombinant protein covering amino acid 517 to the stop codon, 2 μg per lane
Description: Total proteins from E. coli expressing pScreen-1b (lane 1) or expressing pScreen-1b-517-561 (lane 2) were stained (left panel) or bound to ^35S-CaM in the presence of Ca^2+ (middle panel) or EGTA (right panel), a Ca^2+ chelator. […] Total proteins from plants expressing the Flag-tagged DWF1 (DWF1-Flag) or wild-type plants (WT) were incubated with antibodies against full-length human CaM1 (anti-CaM1), AtBET10 (anti-AtBET10) or non-immune serum (Non-im.); immunocomplexes were separated on SDS-PAGE and detected with anti-Flag M2 monoclonal antibody. […] Total proteins from E. coli expressing pET32b (lane 1), pET32b-1-349 (lane 2), pET32b-348-518 (lane 3), pScreen-1b (lane 4) or pScreen-1b-517-561 (lane 5) were stained (left) or were bound to ^35S-CaM (right). […] CaM and the peptide-CaM complex is indicated.
To confirm further the CaM-binding ability of DWF1, the positive clone from the library screening was expressed in Escherichia coli and tested for ^35S-CaM binding^15 in the presence of Ca^2+, EGTA, a Ca^2+ chelator, or Mg^2+. […] C-terminal Flag-tagged DWF1 overexpression lines of Arabidopsis were produced to study the DWF1-CAM interaction in vivo. Because of the dynamic nature of the interaction between DWF1 and Ca^2+/CaM, co-immunoprecipitation using a prior in vivo crosslinking strategy^16 was adapted to verify their interaction under physiological conditions.
The CaMBD is typically comprised of a stretch of 12-30 contiguous amino acids that contain a positive net charge and have a propensity to form an amphiphilic α-helix^4. […] A peptide corresponding to 518-539 was synthesized, and its CaM-binding ability was confirmed using PCM6 (ref. 17) in a gel mobility shift assay^15 (FIG. 1e).
Mutants. Three mutants were produced to disrupt the conserved secondary structure of the CaMBD of DWF1 (FIG. 6, Panel B): V531D (M1), aimed at disturbing the hydrophobic surface; KYR521-523DGD (M2, K521, Y522 and R523 are changed to D521, G522 and D523), aimed at changing the net surface charges; and Δ518-539 (M3), a total deletion of the CaMBD. […]

[1] = test system: DWF1 function (sitosterol/isofucosterol levels); assay: GC-MS sterol analysis of complemented plants; format: in vivo, Arabidopsis; settings: endogenous sitosterol/isofucosterol by GC-MS, six- to seven-week-old plants
Description: DWF1 catalyses the conversion of isofucosterol to sitosterol and 24-methylenecholesterol to campesterol^6,7. The endogenous levels of sitosterol/isofiicosterol or campesterol/24-methylenecholesterol in wild-type, dwarf and complemented plants were analysed using gas chromatography-mass spectrometry (GC-MS) to monitor the function of the complementing DWF1, DWF1(V531D), DWF1(KYR521-523DGD) and DWF1(Δ518-539) carried in cW, cM1, cM2 and cM3 plants, respectively.
Sterol analysis. Six- to seven-week-old greenhouse-grown plants were harvested and ground into a fine powder in liquid nitrogen. Aliquots of 100 mg ground material were sponified in 1 N NaOH, 70% ethanol at 70° C. for 2 h. The sterols were extracted three times with 500 μl hexane, and the combined extracts were dried and dissolved in 100 μl of methylene chloride. GC-MS analyses were conducted on an Agilent 6890 GC system with 5973N mass selective detector. A 1 μl aliquot of methylene chloride extract containing the underivatized sterols was loaded by cool on column injection on a Zebron (Phenomenex) ZB-5 column, 30 m×0.25 mm internal diameter with 0.25 μm film thickness. Chromatography was accomplished using He as the carrier gas at a flow rate of 0.7 ml min^−1. The column oven temperature was programmed to run from 40° C. to 300° C. increased at 20° C. min^−1, with a hold for 10 min at 300° C. Identification and quantification of sterols was accomplished by comparison to authentic standards based on the retention time, peak area and mass fragmentation pattern.

dwf1 null mutant = assay: complementation of dwf1 null mutant, plant phenotype; format: in vivo, Arabidopsis; settings: for phenotype rescue of dwf1 mutant: 35S promoter-driven construct in homozygous dwf1 knockout
From the text: To circumvent the infertility problem associated with homozygous dwf1 mutants^6,7, a heterozygous dwf1 line (SALK—006932, ref. 23) was chosen for transformation. A T-DNA insert is shown in FIG. 6, panel A, and detailed characterizations confirmed that it is a heterozygous dwf1 null mutation line (FIG. 2a, b).
Specifically, heterozygous SALK—006932 plants were transformed with a 35S::DWF1 construct (FIG. 6, panel B). […] Using polymerase chain reaction (PCR) analysis, one dwarf and seven normal plants were identified that carried at least one copy of the 35S::DWF1 complementary construct and were homozygous knockout at the endogenous DWF1 loci. The dwarfism in the dwarf plant was confirmed to be caused by a failure in expression of the transgene (FIG. 2c, d). The overexpressed (numbers 1, 2, 3, 8) and equally expressed (numbers 5, 7) lines grew like the wild-type, confirming a previous report^6. […] At the adult stage, 7 out of the 8 complemented lines reached similar levels of height and fertility as that of wild-type plants (FIG. 3c).
Mutants. Three mutants were produced to disrupt the conserved secondary structure of the CaMBD of DWF1 (FIG. 6, Panel B): V531D (M1), aimed at disturbing the hydrophobic surface; KYR521-523DGD (M2, K521, Y522 and R523 are changed to D521, G522 and D523), aimed at changing the net surface charges; and Δ518-539 (M3), a total deletion of the CaMBD. […] A similar strategy was used to deliver the mutant dwf1 complimentary constructs (FIG. 6, Panel B) into the heterozygous dwf1 plants. Visual checks identified 18, 11 and 19 dwarf plants in the T1 population carrying 35S::DWF1(V531D), 35S::DWF1(KYR521-523DGD) and 35S::DWF1(Δ518-539) complimentary constructs, respectively. These plants were confirmed to carry at least one copy of the transgene and the homozygous knockout at the endogenous DWF1 loci.
To ensure a reliable comparison of the complementary effects of normal DWF1 and the three mutants, T2 plants with similar expression levels were compared (FIG. 3b-d). […] Seeds were produced in most of the slightly shorter siliques of cM1 plants (FIG. 3b, c). […] The dwarf phenotypes of cM1, cM2, cM3 and the dwf1 mutant were rescued by exogenous application of brassinolide (data not shown).

B1: Δ518-539: Arabidopsis thaliana DWF1 protein Δ518-539 mutant, a total deletion of the CaMBD (protein, listed as Arabidopsis thaliana)
chain: MSDLQTPLVRPKRKKTWVDYFVKFRWIIVIFIVLPFSATFYFLIYLGDMWSESKSFEKRQKEHDENVKKVIKRLKGRDASKDGLVCTARKPWIAVGMRNVDYKRARHFEVDLGEFRNILEINKEKMTARVEPLVNMGQISRATVPMNLSLAVVAELDDLTVGGLINGYGIEGSSHIYGLFADTVEAYEIVLAGGELVRATRDNEYSDLYYAIPWSQGTLGLLVAAEIRLIKVKEYMRLTYIPVKGDLQALAQGYIDSFAPKDGDKSKIPDFVEGMVYNPTEGVMMVGTYASKEEAKKKGNKINNVGWWFKPWFYQHAQTALKKGQFVEYIPTREYYHRHTRCLYWEGKLILPFGDQFWFRYLLGWLMPPKVSLLKATQGEAIRNYYHDMHVIQDMLVPLYKVGDALEWVHREMEVYPIWLCPHKLFKQPIKGQIYPEPGFEYENRQGDTEDAQMYTDVGVYYAPGCVLRGEEFDGSEAVRRMEKWLIENHGFQPQYAVSELDEKSFWRMFNGELYEEKTEKEVREAEQAHLETAYAEAD
- CaM-binding ability (35S-CaM): undetectable
- recovery of DWF1 function [1]: almost non-existent
- phenotype rescue of dwf1 mutant (dwf1 null mutant): grew like the uncomplemented dwf1 mutants

B2: DWF1: wild-type Arabidopsis DWARF1 (At3g19820), expressed from 35S::DWF1 in cW plants (protein, listed as Arabidopsis thaliana)
chain: MSDLQTPLVRPKRKKTWVDYFVKFRWIIVIFIVLPFSATFYFLIYLGDMWSESKSFEKRQKEHDENVKKVIKRLKGRDASKDGLVCTARKPWIAVGMRNVDYKRARHFEVDLGEFRNILEINKEKMTARVEPLVNMGQISRATVPMNLSLAVVAELDDLTVGGLINGYGIEGSSHIYGLFADTVEAYEIVLAGGELVRATRDNEYSDLYYAIPWSQGTLGLLVAAEIRLIKVKEYMRLTYIPVKGDLQALAQGYIDSFAPKDGDKSKIPDFVEGMVYNPTEGVMMVGTYASKEEAKKKGNKINNVGWWFKPWFYQHAQTALKKGQFVEYIPTREYYHRHTRCLYWEGKLILPFGDQFWFRYLLGWLMPPKVSLLKATQGEAIRNYYHDMHVIQDMLVPLYKVGDALEWVHREMEVYPIWLCPHKLFKQPIKGQIYPEPGFEYENRQGDTEDAQMYTDVGVYYAPGCVLRGEEFDGSEAVRRMEKWLIENHGFQPQYAVSELDEKSFWRMFNGELYEECRKKYRAIGTFMSVYYKSKKGRKTEKEVREAEQAHLETAYAEAD
- recovery of DWF1 function [1]: recovered to a level comparable to that in wild-type plants
- phenotype rescue of dwf1 mutant (dwf1 null mutant): completely rescue

B3: KYR52-5231DGD: Arabidopsis thaliana DWF1 protein K521D, Y522G, R523D triple mutant (protein, listed as Arabidopsis thaliana)
chain: MSDLQTPLVRPKRKKTWVDYFVKFRWIIVIFIVLPFSATFYFLIYLGDMWSESKSFEKRQKEHDENVKKVIKRLKGRDASKDGLVCTARKPWIAVGMRNVDYKRARHFEVDLGEFRNILEINKEKMTARVEPLVNMGQISRATVPMNLSLAVVAELDDLTVGGLINGYGIEGSSHIYGLFADTVEAYEIVLAGGELVRATRDNEYSDLYYAIPWSQGTLGLLVAAEIRLIKVKEYMRLTYIPVKGDLQALAQGYIDSFAPKDGDKSKIPDFVEGMVYNPTEGVMMVGTYASKEEAKKKGNKINNVGWWFKPWFYQHAQTALKKGQFVEYIPTREYYHRHTRCLYWEGKLILPFGDQFWFRYLLGWLMPPKVSLLKATQGEAIRNYYHDMHVIQDMLVPLYKVGDALEWVHREMEVYPIWLCPHKLFKQPIKGQIYPEPGFEYENRQGDTEDAQMYTDVGVYYAPGCVLRGEEFDGSEAVRRMEKWLIENHGFQPQYAVSELDEKSFWRMFNGELYEECRKDGDAIGTFMSVYYKSKKGRKTEKEVREAEQAHLETAYAEAD
- CaM-binding ability (35S-CaM): undetectable
- recovery of DWF1 function [1]: almost non-existent
- phenotype rescue of dwf1 mutant (dwf1 null mutant): very slight phenotypic rescue

B4: V531D: Arabidopsis thaliana DWF1 protein V531D mutant, disturbing the hydrophobic surface of the CaMBD (protein, listed as Arabidopsis thaliana)
chain: MSDLQTPLVRPKRKKTWVDYFVKFRWIIVIFIVLPFSATFYFLIYLGDMWSESKSFEKRQKEHDENVKKVIKRLKGRDASKDGLVCTARKPWIAVGMRNVDYKRARHFEVDLGEFRNILEINKEKMTARVEPLVNMGQISRATVPMNLSLAVVAELDDLTVGGLINGYGIEGSSHIYGLFADTVEAYEIVLAGGELVRATRDNEYSDLYYAIPWSQGTLGLLVAAEIRLIKVKEYMRLTYIPVKGDLQALAQGYIDSFAPKDGDKSKIPDFVEGMVYNPTEGVMMVGTYASKEEAKKKGNKINNVGWWFKPWFYQHAQTALKKGQFVEYIPTREYYHRHTRCLYWEGKLILPFGDQFWFRYLLGWLMPPKVSLLKATQGEAIRNYYHDMHVIQDMLVPLYKVGDALEWVHREMEVYPIWLCPHKLFKQPIKGQIYPEPGFEYENRQGDTEDAQMYTDVGVYYAPGCVLRGEEFDGSEAVRRMEKWLIENHGFQPQYAVSELDEKSFWRMFNGELYEECRKKYRAIGTFMSDYYKSKKGRKTEKEVREAEQAHLETAYAEAD
- CaM-binding ability (35S-CaM): markedly decreased
- recovery of DWF1 function [1]: restored to some extent
- phenotype rescue of dwf1 mutant (dwf1 null mutant): some degree of phenotype rescue
- height of flowering stems relative to the wild-type plant (dwf1 null mutant; T2 plants with similar expression levels): up to 40%
